The results in this text go back to US20210213134.

Changes are numbered by the printed parent chain.

This data set deals with insulin (fully disulfide-bonded heterodimeric insulin).

B1: Azido-C35STRX (C35STRX with azido-PEG linkers on Lys residues, reduced) (protein)
chain: MVKQIESKTAFQEALDAAGDKLVVVDFSATWCGPSKMIKPFFHSLSEKYSNVIFLEVDVDDCQDVASECEVKCMPTFQFFKKGQKVGEFSGANKEKLEATINELV
On to B1, for which the “activity in the insulin assay as compared to unreacted reduced C35STRX” value is “the conjugated material retained about 33% of its activity in the insulin assay as compared to unreacted reduced C35STRX”.

B2: native human thioredoxin-1 (TRX) (protein)
chain: B1 chain with S35C
Consider B2, for which the “insulin disulfide bond reduction activity” value was “GSH is capable of restoring insulin disulfide bond reduction activity to oxidized TRX (FIG. 1)”.
